Reference: US20040175785A1, “Increasing bioavailability of carotenoids” (priority 2001, published 2004)

Test: Enzymatic deesterification of paprika oleoresin carotenoids, HPLC determination
Format: biochemical
Protocol: HPLC was conducted on a Shimadzu LC-10 AT equipped with SCL-10A Shimadzu diode array detector. Photodiode array measurements of spectral properties from the individual peaks (from 260 to 540 nm) were determined at the upslope, apex and downslope. The column (Merck RP-18e 3.4×250 […], 5-μm particles) was used for HPLC separations. The peaks were detected at 450 and 474 nm.
Deesteriflcation paprika oleoresin by enzymes: Paprika oleoresin (20 mg) was mixed with TWEEN-20 (200 μl) or deoxycholate (100 mg) and 10 ml of H2O. The emulsion has been shaken at 37° C. for 24 hours. Extraction of carotenoids was performed by the addition of 4 ml of ethanol and 5 ml of hexane. The extraction with hexane was done repeatedly until no color could be observed in the extracts. The combined hexane extracts were washed with water (25 ml) and dried over anhydrous sodium sulfate for HPLC determination of the carotenoids.

deesterification in similar assays with other lipases, compared with lipase amano 30 (similar assays to FIGS. 3 and 4): far poorer results
B1: pancreatic lipase: lipase pancreatic from porcine, obtained from Sigma Chemical Co. (protein, UniProt P00591 1-450, looked up)
Pancreatic triacylglycerol …: SEVCFPRLGCFSDDAPWAGIVQRPLKILPWSPKDVDTRFLLYTNQNQNNYQELVADPSTITNSNFRMDRKTRFIIHGFIDKGEEDWLSNICKNLFKVESVNCICVDWKGGSRTGYTQASQNIRIVGAEVAYFVEVLKSSLGYSPSNVHVIGHSLGSHAAGEAGRRTNGTIERITGLDPAEPCFQGTPELVRLDPSDAKFVDVIHTDAAPIIPNLGFGMSQTVGHLDFFPNGGKQMPGCQKNILSQIVDIDGIWEGTRDFVACNHLRSYKYYADSILNPDGFAGFPCDSYNVFTANKCFPCPSEGCPQMGHYADRFPGKTNGVSQVFYLNTGDASNFARWRYKVSVTLSGKKVTGHILVSLFGNEGNSRQYEIYKGTLQPDNTHSDEFDSDVEVGDLQKVKFIWYNNNVINPTLPRVGASKITVERNDGKVYDFCSQETVREEVLLTLNPC
extent of deesterification of paprika carotenoids (general statement, "shown herein"): to a very limited extent
